Legend:
Settings in all cases: EMSA: 1 nM probe, 1 mM Tris-HCl pH 7.5, 0.1 mM EDTA, 0.2 mM DTT, 5 mM MgCl2, 10 mM KCl, 20 min 37 C; PhoP with 0.1 M acetyl phosphate; footprinting DNase I …
[1] = biological target: T1, PhoP (Escherichia coli O157:H7 (EHEC; strain EDL933?)) (UniProt Q8X738); experiment: EMSA
T1 sequence: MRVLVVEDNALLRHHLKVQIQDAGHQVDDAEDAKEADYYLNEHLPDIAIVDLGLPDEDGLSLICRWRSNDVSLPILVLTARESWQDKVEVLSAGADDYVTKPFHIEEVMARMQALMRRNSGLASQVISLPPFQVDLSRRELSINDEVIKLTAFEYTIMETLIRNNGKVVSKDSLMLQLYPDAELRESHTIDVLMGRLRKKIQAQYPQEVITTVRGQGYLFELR

[2] = tested on: T2, LmiA (Z4267) (Escherichia coli O157:H7 (EHEC; strain EDL933?)), ORF:92023632; experiment: EMSA
T2 sequence: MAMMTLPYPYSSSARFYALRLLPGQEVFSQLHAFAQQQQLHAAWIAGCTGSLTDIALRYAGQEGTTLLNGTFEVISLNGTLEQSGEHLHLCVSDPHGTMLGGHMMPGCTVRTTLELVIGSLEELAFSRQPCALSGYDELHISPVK

[3] = biological target: T1, PhoP (Escherichia coli O157:H7 (EHEC; strain EDL933?)); experiment: competition

Sequence | binding [1] | binding [2] | also measured
AATATGGGTAGGGCAATGTCATCATTGGAGTACTCCGAAACTCGGACGTATTACGGATAATATCGACGCTGCATCAGTCATATTCTGATATAAGTCAGGGTTTGTGACGGCACAACGAAAAGATTTTGCTACGCTTATTCGTGATTCTGCAAAGTGGAATAAATTCCACAGGGGCGGGGCTGAGTTGGTGACGAGGGTCAGATAATTGTTTTCTTTGACTGGAC (double strand) [PlmiA-2] | no binding |  | 
AGATTCATCTGCAGGCTCTGAAGTAAGTATACGTGTGAATATTATTGCTTGAAAAAGCGTATTGGATAATATATACAGTATATGTACTTTATGTACATTGCAACTATTTAAATAATATAATAGTTGCCTATGGGATAATTTGGTTATTTATAACCAGGTAAATGTCTAAATTAGACAAAAGGAGAAAGATCAATGGAAGCAGCAAATTTAAGTCCTTCTGGTGCAGTAATG (double strand) [PLEE2/3] |  | no binding | 
CATTAGCCATTGGAAACTCACGTAATCATTAATTATGAATATTCCATTAAATAGTACTGTACAACAGCTTCCTTTCTACTCTATTCTTAGACGATGTAAGTTCACCATATTTTTTCTCATTGTTCAACCACCAGGATGAATAAAATTTAAAAATGTTATCCTCATATAAAATAAAACTTCTCAATGGTGCGATGCG (double strand) [PLEE4] |  | no binding | 
GTCCAGTCAAAGAAAACAATTATCTCAGCCCCGCCCCTGTGGAATTTATTCCACTTTGCAGAATCACGAATAAGCGTAGCAAAATCTTTTCGTTGTGCCGTCACAAACCCTGACTTATATCAGAATATGACTGATGCAGCGTCGATATTATCCGTAATACGTCCGAGTTTCGGAGTACTCCAATGATGACATTGCCCTACCCATATT (double strand) [PlmiA-1] | no binding |  | 
GTCCAGTCAAAGAAAACAATTATCTGACTTACGTCACGTTTTCAGCCCCGCCCCTGTGGAATTTATTCCACTTTGCAGAATCACGAATAAGCGTAGCAAAATCTTTTCGTTGTGCCGTCACAAACCCTGACTTATATCAGAATATGACTGATGCAGCGTCGATATTATCCGTAATACGTCCGAGTTTCGGAGTACTCCAATGATGACATTGCCCTACCCATATT (double strand) [PlmiA unlabeled competitor] |  |  | binding [3]: binds
GTCCAGTCAAAGAAAACAATTATCTGACTTACGTCACGTTTTCAGCCCCGCCCCTGTGGAATTTATTCCACTTTGCAGAATCACGAATAAGCGTAGCAAAATCTTTTCGTTGTGCCGTCACAAACCCTGACTTATATCAGAATATGACTGATGCAGCGTCGATATTATCCGTAATACGTCCGAGTTTCGGAGTACTCCAATGATGACATTGCCCTACCCATATT (double strand) [PlmiA] | binds |  | 
